Reference: the nanobody polyreactivity screen of Harvey et al. (2022)

Experiment: yeast display, Sf9 membrane polyspecificity reagent, FACS + sequencing; frameworks hold sequencing errors
In short: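 Nanobodies came from a synthetic yeast display library in Saccharomyces cerevisiae BJ5465, induced with galactose for 36–48 hours and stained for 1 hour at 4 °C with 10% biotinylated, detergent-solubilized Sf9 membrane reagent. Cells were enriched on streptavidin microbeads and then FACS-sorted, with low and high (top ~1%) gates set on anti-HA fluorescence for expression and streptavidin fluorescence for reagent binding. Each polyreactivity label reflects the gate a clone came from. Genes were amplified by colony PCR, sequenced by MiSeq 2 × 250 and filtered by CDR length.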

Sequence | polyreactivity (PSR sort gate)
QVQLVESGGGLVQAGGSLRLSCAASGTFGYYTMGWYRQAPGKERELVAAITRSGGSTYYADSVKGRFTISRDNAKNTVYLQMNSLKPEDTAVYYFATELHAWSSWNRYRAYYYWGQGTQVTVSS | high polyreactivity
QVQRVESGGGLVQAGGSLRLSCAASGSIFSIYAMGWYRQAPGKETELVAAIDSGTSTTYADSVKGRFTISRDNAKNTVYLEMNSLKPEDTAVYYCAAALYSDVAAVATYGYYCGQGTQVTVSS | low polyreactivity
QVQLVESGGGLVQAGGSLRLSCAASGRTLSVYAMGWYRQAPGKERELLAAITIRGGRTYYADSVKGRFTISRDNAKNTVYLQMNSLKPEDTAVYYCAAPPYVKMDYWGQGTQVTVSS | high polyreactivity
QVQLVESGGGLVQAGSSLRLSCAASGGTFYINTKGWYRKAPGKERELVATITIVVSTKYADSVKGRFTISRDNAKNTVYLQMNSLKPEDTAVYYCAKDDVYRDSYLVFDGEMDYWGQGTQVTVSS | low polyreactivity
HVQLVESGGGLVQAGGSLRLSCAASGSIFPRYSMGRYRQAPGKEMELVAAITSGGSTYYADSVKGRFTISRDNAKNTVYLQMNSLKPEDTAVYYCAATIYRPKGGTYGWYGYDYWGQGTQVTVSS | high polyreactivity
QVQLVESGGGLVQAGGSLRLSCAASGSTFSRNAMGWYRQAPGKERELVAAISWRGGRTYYADSVKGRFTISRDNAKNTVYLQMNSLKPEDTAVYYCAAEHKYRYDYWGQGTQVTVSS | low polyreactivity
QVQLVESGGGLVQAGGSLRLSCAASGRTFIAYGMGWYRQAPGKERELVAAISRNGASTYYADSVKGRFTISRDNAKNTVYLQMNSLKPEDNAVYYCAAGYIRSRGGRWTHSGYWGQGTQVTVSS | high polyreactivity
QVQLVESGGGLVHAGGSLRLSCAPSGSNFCFNAMGWYRQAPGKERELVAAIPSRGGSTYYADSVKGRFTISRDNAKNTVYLQMNSLKPEDTAVYYCNADHRDTFIWVGLPHMDYWGQGTQVTVSS | low polyreactivity
QVQLVESGGGLVQAGGSLRLSFAASGSIFYVYAMGWYRQAPGKERELVAAITWSGGSTYYADSVKGRFTLSRDNAKNTVYLQMNSLKPEDTAVYYCAADEGYDYPYYYWGQGTQVTVSS | high polyreactivity
QVQLVESGGGLVQAGGRRRLSCAASGSTYNPYPMGWYRQAPGKERELLATITWRGTSTYYADSVKGRFTISRDNAKYTVYLQMNSLKPEDTAVYYGAKGFVYNYPKTYKSYSTYYYWGQGTQVTVSS | high polyreactivity
QVQLVESGGGLVQAGGSLRLSCAASGFTFNYYAMGWSRQAPGKERELVAAITWDGGTTYYADSVKGRFTISRDNAKNTVYLQMNSLKPEDSAVYYCAADYAWVSIYDNVPSAPGYDYWGQGTQVTVSS | low polyreactivity
PVQLVESGGGIVQAGGSLRLSCAASGSTFVGKAMGWSRQAPGKQREMFAAISRTGGSPYYADSVKGRFSISRDNAKNSVYLQMISLKPEDTAVYYCAEVYGGPYGELDYWGHGTQVTVSS | high polyreactivity
QVQLVESGGGLVQAGRSLRLSCAASGLTFSLYAMGWSRQAPGKERELVAANSWTGGSTYYADSVKGRFTISRDNAKNTVYLQMNSLKPEDTAVYYCNARYTLFARYGYDYWGQGTQVTVSS | low polyreactivity
QVQLVESGGGLFQAGGSLRLSCAPSGSIIIRNAMGWYRQAPGKEREWVAVISSSVGRTYYADSVKGRFTISRDTAKNTVYVQMNSLKPEVTAVYYCAARWYSGYGRFDYWGQVTQVTVSS | high polyreactivity
QVQLVESGVGLVQAGGSLRISCAASGGTFLWYAMGRYRQAPGKERELVADITYSGGSTYYADSVKGRFTISRDNAKNTVYLQMNSLKPEDTAVYYCATRGVSPSRPGYYWGQGTQVTVSS | high polyreactivity
QVHLVESGGGLVQAGGSLRLSCAASGLTFGRNAMGWYRQAPGKERELVAVISRSGGSTYYADSVKGRFTISRDNAQNTVYLQMNSLKPEDTAVYYCAAGAYSYRKYRSYDYWGQGTQVNVSS | high polyreactivity
QVQLVESGGGLVKAGGSLRLSCAASGSTFHIYAMGWYRQAPGKERELVAAISKGGGNTYYADSVKGRFTISRDNAKNTVYLQMNSLKPEDTAVYYCAAVPTRYRSYTYTYGGYNYWGQGTQVTVSS | high polyreactivity
QVQRVESGGGLVQAGGSLRLTCAASGLTFRTYAMGWYRQAPGKERELVAAISGTGGTTYYADSVKGRFTISRDNAKNTVYLQMNSLKPEDTAVYYCNKRWRRPYPYDYWGQGSQVTVSS | high polyreactivity
QVQLVESGGGLVQAGGSLRLSCAASGITFDLYAMGWFRQAPGKERELVAAISISSTSTYYADSVKGRFTISRDNAKNTVYLQMNSLKPEDTAVYYCNAVPSSKTFWFDYWGQGTQVTVSS | low polyreactivity
QVQLVESCGGLVQAGGSLRLSCAASGSIFADYAMGWYRQAPGKEREFVAAITRSGTSTYYADSVKGRFTISRDNAKNTVYLQMTSLKPVDTPVYYCAKTEVLLYLYTLDYWGQGTQVTVSS | low polyreactivity
QVQLVESGGGLVQAGGSLRLSCAASGSSFTYYTMGWYRQAPAKERELVAAISWSGGRTYYADSVTGRFTISRDNAKNTVYLQMNSLKPEDTAVYYCAAGPAPGHDSWGQGTQVTESS | high polyreactivity
QVQLVESARGLVQAGGSLRLSCAASGFTFYKYAMGWYRQAPGKETELVDAISSGGRTNYADSVKGRFTISRDNAMNTVYLHMNSLNPEDTAVYFCAADRSYRSGYNYWGQGTQVTVSS | high polyreactivity

Sequence | polyreactivity (PSR sort gate)
QVQLVESGGGLVQAGGSLRLSCAASVRTFYRNAMGWYIQAPGKERELVAAITSGGSTYYADSVKGRFTISRDNAKNTVYLQMNSLKPEDTAVYYCAALRHALRYDYWGQGTQVTVSS | low polyreactivity
QVQLVESGGGLVQAGGSLRLSCAASGSIFYTYVMGWYRQAPGKERELVAAITWSGGSTYYADSVKGRFTISRDNAKNTVYLQMNSLKPEDTAVYYCAAVRGYRSSKYDYWGQGTQVTVSS | high polyreactivity
QVQLVESGGGLVQAGGSLRLSCAASGSIFYSNVMGWYRQAPGKESELVAAITRGGGTNYADSVKGRFTISRDNAKNTVYLQMNSLKPEDTAVYYCNRDPQKYRWIPRFDYWGQGTQVTVSS | low polyreactivity
QVQLVESGGGLVQAGGSLRLSCAASGRILLYNAMGWYRQAPGKERELVAAISRSGGSTYYADSVKGRFTISRDNAKNTVYLQMNSLKPEDTAVYYCAAQHGYPRYYYWGQGTQVTVSS | high polyreactivity
QVQLVESGGGLVQAGGSLRLSCAASGRIFVRYAMGWYRQAPGKERELVAAISSGGRTHYADSVKGRFTISRDNAKNTVYLQRNSLKPEDTAVYDCATRLRSTTRYYYWGQGTQVTVSS | high polyreactivity
QVQLVESGGGLVQAGGSLRLSCAASGRIFKWNAMGWYRQAPGKDRELVAAINLSTRSTYYADSVKGRFTISRDNAKNTVYLEMHSLKTVDTAVYYCAAVTYANYYYDAYYYWGQGSQVTVSS | high polyreactivity
QVQLVESGGGLVQAGGSLRLSCAASGSIFDGNAMGWYRKATGKERELVAAITNSGGSTYYADSVNGRFTISPENAMNSVYLQKNSLKPEDTAVYYCNALPFAWRRYRWLRTMYYWGQGTQVTVSS | low polyreactivity
QVQLVESGGGLVQAGGSLRLSCAASGSIFTLYAMGWYRQAPGKERELVAAITWSGGSTYYADSVKGRFTISRDNAKNTVYLQMNSLKPEDTAVYFCAKDYLAGGPWEGHVEREYDYWGQGTQVTVSS | low polyreactivity
QVQLVESGGGLVQAGGSLRLSCPASGITFVPNAMGWYRQAPGKERELVARIDNGVSTNYADSVKGRFTISRDNAKNTVYLQMNSLKPEDTAVYYCAKDGYWGDWDLDYWGQGTQVTVSS | low polyreactivity
QVQLVESGGGLVQAGGSLRLSCAASGGIFYTYAMGWYRQAPGKEREFVAAISRRGSSTYYADSVKGRFTISRDNEKNTVYLQMNSLKPEDTAVYYCAKSYAPYSYANNDYWGQGTQVTVSS | low polyreactivity
QVQLVESAGGLVQAGASLRLSCAASGRIFVRNAMGWYRQAPGKEREMVADITNGGSTNYADSVKGRFTISRDNAKNTVYLQKNRLNPEDTAVYYCNADGFVYDLRARPGWVDYWGQGTQVTVSS | low polyreactivity
QVQLVETGGGLVQAGGTLRLAVLPPDLPSTLNDMGWYRQATGKERELVAAITRGGSTNYADSVKGRFTISRDNAKNTVYLLMNSLKPEDTAVYYCAARSAGWRDGGDYWGQGTQVTVSS | low polyreactivity
QVQLVESGGGLVQAGGSLRLSCAASGRIFSKNAMGWYRQAPGKVRELVAAISYITGSTYADSVKGRFKISRDNAKNTDYLQMNSLKPEYTAVYYCAASSTWYGYYIYVFRAYDYWGQGTQLTVSS | low polyreactivity
QVQLVESGGGLVQAGGSLRLSCAASGRTFWRYAMGWYRQAPGKERELVAAISVSGGTTYYADSVKGRFTISRDNAKNTVYLQMNSLKPEDTAVYYCAARYGSIYSILYYGFDYWGQGTQVTVSS | high polyreactivity
QVQLVESGGGLVQAGGSLRLSCAASGNTIGKYAMGWYRQAPGKETELVATITRRGGSTYYADSVKGRFTISRDNAKNTVYLQMNSLKPEDTAVYYCNRAVTYGTYDYWGQGTQVTVSS | high polyreactivity
QVQHVESGGGLVQAGGSLRLSCAASGFTFNLYAMGWYRQAPGKERELVAAINWSGGTYYADSVKGRFTISRDNAKNTVYLQMNSLKPEYTAVYYCAADFPYTPWSYHHHVWSPDFDYWGQGTQVTVSS | low polyreactivity
QVQLVESGGGLVQAGGSLRLSCASSGFTFGYYTKGWYRQAPGKERELVAAITSGGGTYYADSVKGRFTISRDNAKNTVYLQMKSLKPEDTAVYYCATTPGLYKVSSRYGYWGQGTQVTVSS | high polyreactivity
QVQLVESGGGIVQAGGSIRLRCAASGIIFVVNDMGWYRQAPGKERELVADISDSGGSTNYADSVKGRFTISRDNAKNTVYLQMNRLKPEDTAVYYCAADSADPTEYDYWGQGSQVTVSS | low polyreactivity
QVQLVQSGGVLVQAGGSLRLSCAASGFIFNTYAMGWYRPAPGKERELVAAIDGRGGTTYYADSVKGRFTISRDYAKNTVYLQMHSLKPEDTAVYYCAARYQRLGIRYGYWGQGTQVTVSS | high polyreactivity
QVQLVESGGGLVQAGGSLRLICADSGLIFRWYAMGWYRQAPGKERELVAAISRRGGTTNYADSVKGRFTISRDNAKNTVYLQMNSLKPEDTAVYYCAVSGGFYWGQGTQVTVSS | high polyreactivity
QVQLVDSGGGLVQAGGSLRLSCAASGSIFYAYAMGWYRQATGKERQLLAVISRGGITNYSDSVKGRFTISRDNAKNTFFLQMNSLNPEDTAVYYCAAATSAWGYLRRYGYWGQGTQVTVSS | low polyreactivity
